This series deals with thrombin-cleavable lipopeptide conjugate (TCP-stearate).

As to thrombin, the “MALDI-TOF mass spectroscopy of TCP-stearate before and after exposure to thrombin (30 minutes, 250 nM)” value was “thrombin could efficiently cleave the conjugate, evidenced by the fact that after thrombin exposure very little of the TCP-stearate conjugate remains (peak at 1046 m/z), whereas 2 new degradation peaks appear (495 and 534 m/z)”.

Source of the values: patent US20250041390.
